Measurements reported in patent US11834553B2, “Alkoxylation methods” (priority 2009, dated 2023).

How the values were obtained:
[1] = pH 10, 20° C., within 24 hours
Protocol: (§1) Experiments were performed to determine the fate of the irinotecan-containing PEG species in 4-arm-PEG-Gly-Irino-20K under transesterification (K2CO3 in CH3OH, 20° C.) and aqueous hydrolysis (pH 10, 20° C.) conditions.

[2] = Stress stability studies of 4-arm-PEG-Gly-Irino-20K (Example 3); type: physicochemical; details: summary of stress stability studies
Protocol: The product formed in Example 1, 4-arm-PEG-Gly-Irino-20K, compound 5, (approximately 1-2 g) was weighed into PEG PE ‘whirl top’ bags and placed into another ‘whirl top’ bag in order to simulate the API packaging conditions. In one study (results shown in FIG. 1), samples were placed in an environmental chamber at 25° C./60% RH for 4 weeks. In another study, samples were placed in an environmental chamber at 40° C./75% RH for up to several months (results shown in FIG. 2 and FIG. 3). Samples were taken and analyzed on a periodic basis over the course of the studies.

[3] = K2CO3 in CH3OH, 20° C., after 45 minutes
Protocol: as §1

For “pentaerythritolyl-4-arm-(PEG-1-methylene-2-oxo-vinylamino acetate linked-irinotecan) [4-arm-PEG-Gly-Irino-20K]”, which “aqueous hydrolysis reaction, completion” value [1] is on record?
Its value is > 99%.

What about the “overall stability compared with free base and hydrochloride salt” value [2] of the same substance?
Its value is “greater stability than either the free base or hydrochloride salt”.

And the “transesterification reaction, completion” value [3]?
The value was > 99%.
